Experimental data reported in the DeepSol protein solubility set.

Assay: soluble on expression in E. coli; label from the status in PepcDB or PDB records

| Sequence | soluble on expression in E. coli |
| --- | --- |
| MGSDKIHHHHHHMKFVEIRDLQVTYMGKDKPSIVVDKLDIEEGESVLITGRSGSGKSTLVSVINGVIPHLINAEIKGEVRVFGFDVKSTPIHEISKYVGTLLQDPDTQAFNYTIIDEVAFGVENYMISRDEMIERVEESMKIYGISHLRDREINTLSGGELQRTILASVLAMRPKALILDEPTSNIDPQGTREILELVKTFRSEGISLVLVEHKIERVLPFVDRIIVVEEGKIAVDVRKDEIVDKADFLYSLGLEIPDYMLFLKKNGFRKIDYEYLRKTYTYRPPSRIGGKGEALYASVKVKTKNGIYLINTKISLKQGTITALMGKNGSGKTTLLKVIVGLIDKKRLIVEEEKVIVNGVDLSKTKLVERGKFIAYLPQFFDVMFIKRTVEDEIKFSMKNRGTYDEKRLGEVLKMFSLDAYRKEDPLVLSMGQRRRVAMASVLAGGAKVILMDEPTSGQDWYHRQILGKELLELRDKGYTILVVTHDSRFVDRFADYLLVMNEGKIVLEGKPEEVFIKSLRHGIEPPLEYELGGLIKNEHFS | not soluble |
| MGSDKIHHHHHHMARVPRFALVERDSSNHCTWRAHDLEFVFEEPGARDKFLELVGRYKDRYGVEIRSYCLMGTHPHVTCTCRQEQVQFSRFWQVVNGQFARWYNKVRNRRGQVVMERMRTPRIQEGGAHQLTVMRYGDLNPVRAGLVKSPKDWKWSSYRHYAFGEPNPLITDAPEYLALGKTAQERRKAYQALFALPLSESLRTRRVELVSFPFVGDATWVMRRLEAAGLSPPD | not soluble |
| MQDEVETEVIIKDIFKQGKICFIPQYQFQSNHMDMVRLTSPEEIALLPKTSWNIHQPGEGDVREEALSTGGLDLIFLPGLGFDKDGNRLGRGKGYYDTYLKRCVQHQEVKPYTMALAFKEQICPQIPVDEHDMKVDEVLYEDSPAS | soluble |
| MKKVLITGFEPFGGDSKNPTEQIAKYFDRKQIGNAMVYGRVLPVSVKRATIELKRYLEEIKPEIVINLGLAPTYSNITVERIAVNIIDARIPDNDGYQPIDEKIEEDAPLAYMATLPVRAITKTLRDNGIPATISYSAGTYLCNYVMFKTLHFSKIEGYPLKAGFIHVPYTPDQVVNKFFLLGKNTPSMCLEAEIKAIELAVKVSLDYLEKDRDDIKIPL | soluble |
| MANLGMTGVADGNNSEQTYLGQINYQDQTITKASAKKLNREIDLQRASQLTLWAMPMVGMYQSYNSTIALFDLQEGDAPIIGLHEGYDGVYPFLTANVTTPYTISLVDLSETGPYVVNIPAGSIFGVANNAWQEPIKEIGSGNKETLLFVGPGQEYPKDFDGEVIQSDTNQILYFYRVLGVGAEAEKLKTAVTAYKLSDVANPPQVKFVIYKPKASDADVTIATQPRGMAYWEVVNQYIQNEPMADRDRFFYAWLKDLGIEKGKAFNPTPYQKEILLEGVNTGMAMAQSLAFNKTKKKFSSSLYGSDSGWEGVLAGMDPKIDLDTYSMINERTAYTYEAVTTSAGMIVENPGHGSAYIGSYYDADGNALMGGKNYTLHIEPNPPAANFWSITVYDIKNRLIIRNEIKRSDLSSRSESLVMNSDGSVDLYFGPEAPEGKEGNWIQSNDGESYFMYLRLYGPEQEYFDQTYPMNKIDKTKLEHHHHHH | not soluble |
| MTILAIDTSNYTLGIALLREDTVIAEYITYLKKNHSVRAMPAVHSLLNDCDMAPQDLSKIVVAKGPGSYTGVRIGVTLAKTLAWSLDIPISAVSSLETLAANGRHFDGLISPIFDARRGQVYTGLYQYKNGLLEQVVPDQNVMLADWLEMLKEKDRPVLFLGHDTSLHKQMIEDVLGTKGFIGTAAQHNPRPSELAFLGKEKEAADVHGLVPDYLRLAEAEAKWIESQKLEHHHHHH | not soluble |
| GMEVNQPDIVAQVQAAFVEYERALVENDIEAMNALFWHTPETVRYGIAEVQHGGEAIRAWRERCEPVPKSRKLHRTVVTTFGTDFATVSTEFTSDATPLLGRQMQTWARLSPADGWKIVAAHVSLIAMP | soluble |
| MGSDKIHHHHHHMATELFTWHTLSDTLSDFKSGLSLAQNSGAESLLVLTCSQNNYPEEELNALFHACPLKLFGGIYPMLTLKGDLIKQGALIIGFKEAVDVTLFAQLNQVTNESCLEELITSTLKEKNNFCGQDDFLMFYDALISNIEGFIDCLFEHLDHGINIAGGGAGNLDFIQRHCIFTNSGVHSDAILLVALPRTLNTSVAHGWETFDEPFLVSEAQGQTVQSLNYQPAYEVYCQTIESATEYTFNNTDFFDIAKNFPLGIKDINNNIIVRDPILAKNNHLQCFGNIPINSMVYLLESNIDSLVASTEKAAIALLSKLNKTTITTTMVFDCISRALFMEDEFEKELNVIAEHCHLGALFGVLSLGEIANSQSGAIRLLNKSIVISSW | not soluble |
| MAKISEIMLLQQPEQPALAIEVQTYMKGMSQAIGENFVRIDSLFKKQGEVTTDIPFVEYPDFESLTEDRIKMIIGLKSSKPLQGDEKIQSVILPARRIVVCLHRGNYNELAQLYNEMTEWIKTNGYKASGTSIEYYYSNPDVPEEEHVTRVEMPLL | not soluble |
| MSNGRAVNGFLLDITGVLYNSIYKSDGVAVPKSAEAVNFLYQHSKVKFLSNAKGNSNRNVARRLQRLGINVREEDVITPAPVVAQYCRENKLRPHLFVRDDVLEYFDGIDTSSPNCVVMGEVEEGFSFDRINRAFRILIDMPKPLLITMGNGKFFQRVDGPCIDVGAFAAALKFSTNCEVLNIGKPSRFYFEQGMNALGMKPEEIVMVGDDLMSDVGGAQACGMRGVQVRTGKWRPDFEKMPVTPDLTADCLYDAVKLIADNGFRL | not soluble |
| MGHHHHHHSHMRKTLIALMFATALPAIAMAAPPAPPAGAPDADAPGMHMQRGDRGPGMHRGPGPLKELDLTREQRQQIDRLMREQMHERREITQNYLEKMPAADQKAMRDEIEAKRSKTDSEVRALLKPDQQKQFDEIKKKEDERRAEWAEFKAWKAAKTAKAQ | soluble |
| GPGSMDNTEETSRVTDQEERTLTETELPAPAEHVLEGDNSASEENRLHAFLIPLEDGEQFARANLQHRWYRGLTKMLWDEELERNGILIVERGESGRNNQSADEEEEEDDDGTDDCVAKMKREFRIKREQDKIVYEEDSTRTETLREEQNAISLIVTLMEEAMDRSILMNEAETMFALILDVLKPRVHYRYIYAWGVVTCCSFKPLKSEMDRLRPSDRHKPPYMRKSLPTCRVPLEPIYYLPDGGKKMRAMNELNDVRAIGWV | not soluble |
| MGSDKIHHHHHHMKLISVRRIWEQAAHNAFTDLIAFQEALFCVFREGTAHVSPDGALRILRSVDGGETWQSVALIRSDEADLRDGKLIEYQGELLLLGGGTLHNKSGLQSHLWRSADGRVWSDALKIADKGYWLWRLTEHQNTLYGVGYRPGPDGDTRLYKSEDGVQFKTWLKVFNNQGYVNETAIVFDQDSGFCLLRRDPVWGPEFFGLLGHSRAPFTDWQWQELDKRIGGPVMLMYQSRLLAVVRLYDEQVRTALVEIHSDTGVVQELLTLPSKGDTSYAGVVIDGNELWVSYYSSHELADSQLDTQNSLDESSRAGKAKTMIYFAKILLS | not soluble |
| MGSDKIHHHHHHMLKICVIGSSGHFRYALEGLDEECSITGIAPGVPEEDLSKLEKAISEMNIKPKKYNNWWEMLEKEKPDILVINTVFSLNGKILLEALERKIHAFVEKPIATTFEDLEKIRSVYQKVRNEVFFTAMFGIRYRPHFLTAKKLVSEGAVGEIRLVNTQKSYKLGQRPDFYKKRETYGGTIPWVGIHAIDWIHWITGKKFLSVYATHSRLHNSGHGELETTALCHFTLENEVFASLSIDYLRPQGAPTHDDDRMRIVGTRGIVEVINERVFLTDEKGHREVPLVEKGQIFEDFLREIRGQGKCMVTPEDSILTTEIALKARLSADTGQIVLI | not soluble |
